{"source": "patent US20110179509A1", "about": "“Use of Afamin for Treating Fertility Disorders” (VITATEQ BIOTECHNOLOGY GMBH, priority 2008, published 2011)", "molecules": {"B1": {"name": "recombinantly produced murine afamin: murine afamin expressed by stable transfection of CHO cells with mouse afamin cDNA, purified from serum-free culture supernatants (protein, UniProt O89020 22-608, looked up)", "Afamin": "LPTKPQDVDHFNATQKFIDENTTYLAIIAFSQYVQEASFDEVETLVKVMLDYRDRCWADNTLPECSKTANDAIQDMLCDMEGLPQKHNFSHCCGKAGFPRRLCFFYNKKANVGFLPPFPTLDPEEKCQAYKNNSESFLHLYMYEVARRNPFVFAPVLLAVAAWFEEAATTCCEQQQKATCFQAKAAPITQYLKASSSYQRNVCGALIKFGPKVLNSINVAVFSKKFPKIGFKDLTTLLEDVSSMYEGCCEGDVVHCIRSQSQVVNHICSKQDSISSKIKVCCEKKTLEREACIINANKDDRPEGLSLREAKFTESENVCQERDSDPDKFFAEFIYEYSRRHPDLSTPELLRITKVYMDFLEDCCSRENPAGCYRHVEDKFNETTQRSLAMVQQECKQFQELGKDTLQRHFLVKFTKAAPQLPMEELVSLSKEMVAALTTCCTLSDEFACVDNLADLVLGELCGVNTNRTINPAVDHCCKTDFAFRRHCFEHLKADTTYELPSVSALVSALHTDWCQPRKEDLQNKKHRFLVNLVKWMPGITDEEWLCLFTKFTAAREECSEVQEPESCFSPESSKTGDESQATEKQR"}, "B2": {"name": "afamin: 75-kDa human serum glycoprotein with vitamin E-binding properties, member of the albumin gene family (protein, UniProt P43652 22-599, looked up)", "Afamin": "LPTQPRDIENFNSTQKFIEDNIEYITIIAFAQYVQEATFEEMEKLVKDMVEYKDRCMADKTLPECSKLPNNVLQEKICAMEGLPQKHNFSHCCSKVDAQRRLCFFYNKKSDVGFLPPFPTLDPEEKCQAYESNRESLLNHFLYEVARRNPFVFAPTLLTVAVHFEEVAKSCCEEQNKVNCLQTRAIPVTQYLKAFSSYQKHVCGALLKFGTKVVHFIYIAILSQKFPKIEFKELISLVEDVSSNYDGCCEGDVVQCIRDTSKVMNHICSKQDSISSKIKECCEKKIPERGQCIINSNKDDRPKDLSLREGKFTDSENVCQERDADPDTFFAKFTFEYSRRHPDLSIPELLRIVQIYKDLLRNCCNTENPPGCYRYAEDKFNETTEKSLKMVQQECKHFQNLGKDGLKYHYLIRLTKIAPQLSTEELVSLGEKMVTAFTTCCTLSEEFACVDNLADLVFGELCGVNENRTINPAVDHCCKTNFAFRRPCFESLKADKTYVPPPFSQDLFTFHADMCQSQNEELQRKTDRFLVNLVKLKHELTDEELQSLFTNFANVVDKCCKAESPEVCFNEESPKIGN"}}, "key": {"[1]": {"test_system": "infertile male chimeric animals", "test": "afamin substitution via intraperitoneal minipump in infertile male chimeric afamin knock-out mice: fertility and testes histology", "format": "in vivo, mouse", "excerpt": "Chimeric mice from ES cells carrying the disrupted afamin allele were generated by microinjection of 10-15 ES cells into 3.5-day-old embryos of the C57B1/J mouse strain. Chimeric animals were mated to C57B1/J or 129/Sv partners, respectively, to establish the afamin mutant allele on a C57B1/J×129/Sv hybrid and on a 129/Sv inbred genetic background. Loss of afamin mRNA and protein was checked by Northern and Western blot analysis.\nIn order to confirm the role of afamin for fertility, infertile male chimeric animals were substituted with recombinantly produced murine afamin via minipump, which was implanted intraperitonially and released afamin continuously into the organism for 28 days (which corresponds to the time required for spermiogenesis in mice). Control mice received physiological saline solution instead of afamin. At weekly time intervals, plasma was obtained from substituted mice. […] Offspring were, however, exclusively wild-type not carrying the recombinant allele."}, "[2]": {"test": "afamin plasma concentration by ELISA during afamin substitution", "format": "in vivo, mouse", "conditions": "infertile male chimeric mice, intraperitoneal minipump, continuous release for 28 days, plasma at weekly intervals", "excerpt": "In order to analyse the afamin concentrations in the partial knock-out mice, an ELISA kit for quantifying afamin in mouse plasma was developed. For that purpose, a polyclonal antibody against mouse afamin was obtained by immunising rabbits with purified recombinant murine afamin. Recombinant expression of murine afamin was achieved by stable transfection of CHO cells with mouse afamin cDNA followed by purification from serum-free culture supernatants. The obtained polyclonal anti-mouse afamin antibody was purified by affinity chromatography on a sepharose column to which recombinant afamin was covalently bound. This affinity-purified antibody was used to coat ELISA-plates and, after conjugation with horse-radish peroxidase, also for detection using an appropriate substrate reaction. Purified recombinant afamin (quantified by amino acid compositional analysis) served as standard. With this ELISA, an afamin plasma concentration in the range of 6-10 mg/l was measured in wild-type mice which is roughly only 10% of respective plasma levels in humans (3).\nIn order to confirm the role of afamin for fertility, infertile male chimeric animals were substituted with recombinantly produced murine afamin via minipump, which was implanted intraperitonially and released afamin continuously into the organism for 28 days (which corresponds to the time required for spermiogenesis in mice). […]"}, "[3]": {"conditions": "human afamin binding alpha- and gamma-tocopherol, radioligand assay; read-out: binding-dissociation constant; cited from earlier work"}}, "note": "Entries after “also recorded” stand apart in the source; their conditions may differ."}
{"molecule": "B1", "values": [{"measurement": "histological examination of testes, spermiogenesis", "setting": "[1]; after afamin substitution and sacrifice", "value": "restoration of normal testes histology, spermiogenesis; also recorded: completely normalised testes tissue and spermiogenesis"}, {"measurement": "fertility (mating with female wild-type mice)", "setting": "[1]; intraperitoneal minipump, 28 days substitution", "value": "restoration of normal testes histology, spermiogenesis and fertility; also recorded: resulted in several pregnancies and births"}, {"measurement": "plasma concentrations of afamin", "setting": "[2]", "value": "immediately rose to physiological levels and stayed constant during the infusion period"}]}
{"molecule": "B2", "values": [{"measurement": "Kd", "setting": "[3]", "value": 18, "unit": "µM"}]}
